# Results as given in patent publication US20260167699A1 (Chugai, published 2026).
# Molecular target: T1, FcγRIIIaV (human, UniProt P08637 17-208)
# T1 construct: extracellular domain
# Assay: SPR (Biacore), antibody captured, FcγR as analyte, 1:1 Langmuir fit
# Procedure: The antibody of interest was analyzed for its interaction with FcγR using a BiaCore™ T100, BiaCore™ A100, or BiaCore™ 4000 surface plasmon resonance system (GE Healthcare Japan Corp.). The running buffer used was HBS-EP+ (GE Healthcare Japan Corp.). The assay temperature was set to 25° C. The sensor chips used were: a chip prepared by immobilizing antigenic peptides onto Series S Sensor Chip CM5 (GE Healthcare Japan Corp.) by the amine coupling method; a chip prepared by immobilizing antigenic peptides biotinylated in advance onto Series S Sensor Chip SA (certified) (GE Healthcare Japan Corp.) through their interaction; a chip prepared by immobilizing protein L (ACTIGEN, BioVision, Inc.) onto Series S Sensor Chip CM5 (GE Healthcare Japan Corp.); and a chip prepared by immobilizing protein A/G (Thermo Fisher Scientific K.K.) onto Series S Sensor Chip CM5 (GE Healthcare Japan Corp.). The antibody of interest was captured onto any of these chips and allowed to interact with FcγR diluted with a running buffer. The antibody captured on the chip was washed off through the reaction of 10 mM glycine-HCl (pH 1.5) to regenerate the chip, which was repetitively used.
# T1 sequence (P08637 other isoform, or with tags, fused parts or gaps): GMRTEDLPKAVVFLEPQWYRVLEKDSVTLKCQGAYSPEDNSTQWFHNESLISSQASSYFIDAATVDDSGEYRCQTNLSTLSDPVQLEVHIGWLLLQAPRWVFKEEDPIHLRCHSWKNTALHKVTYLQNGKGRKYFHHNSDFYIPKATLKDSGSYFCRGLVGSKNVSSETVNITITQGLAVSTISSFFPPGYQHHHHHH
row,Binder,Kd [nM]
1,"HI076-L3-9 (antibody, human IgG1, kappa, heterodimerized anti-EREG antibody: altered H240-Hl076 chain (Gly/Ser peptide in loop) with H240-Kn125 and L73-k0; also called Hl076-L3-9) heavy 1: QDQLVQSGAEVKKPGASVKVSCKASGFNIKDTYIQWVRQAPGQGLEWMGRIDPLRKQTKYREKFEGRVTITADTSTNTAYMELSSLRSEDTAVYYCVRSGREFDYWGQGTLVTVSSASTKGPSVFPLAPSSKSTSGGTAALGCLVKDYFPEPVTVSWNSGALTSGVHTFPAVLQSSGLYSLSSVVTVPSSSLGTQTYICNVNHKPSNTKVDKKVEPKSCDKTHTCPPCPAPELLGGPSVFLFPPKPKDTLMISRTPEVTCVVVDVSHEEPEVKFNWYVDGVEVHNAKTKPREEQYNSTGGSGGSGGSYRVVSVLTVLHQDWLNGKEYKCKVSNDALPMPIEETISKAKGQPREPQVYTLPPSRCELTKNQVSLSCAVKGFYPSDIAVEWESNGQPENNYKTTPPVLDSDGSFFLVSKLTVDKSRWQQGNVFSCSVMHEALHNHYTQKSLSLSP heavy 2: QDQLVQSGAEVKKPGASVKVSCKASGFNIKDTYIQWVRQAPGQGLEWMGRIDPLRKQTKYREKFEGRVTITADTSTNTAYMELSSLRSEDTAVYYCVRSGREFDYWGQGTLVTVSSASTKGPSVFPLAPSSKSTSGGTAALGCLVKDYFPEPVTVSWNSGALTSGVHTFPAVLQSSGLYSLSSVVTVPSSSLGTQTYICNVNHKPSNTKVDKKVEPKSCDKTHTCPPCPAPEYQWGPMVFLFPPKPKDTLMISRTPEVTCVVVDVSDEEPEVKFNWYVDGVEVHNAKTKPREEQYNATYRVVSVLTVLHQDWLNGKEYKCKVSNKALPAPIEKTISKAKGQPREPQVCTLPPSRDELTKNQVSLWCLVKGFYPSDIAVEWESNGQPENNYKTTPPVLDSDGSFFLYSKLTVDKSRWQQGNVFSCSVMHEALHNHYTQKSLSLSP light: DIQMTQSPSSLSASVGDRVTITCRASQDIHKYIAWYQQKPGQAPRLLIQYTSTLQPGVPSRFSGSGSGTDYTFTISSLQPEDIATYYCLQYEQLRTFGGGTKVEIKRTVAAPSVFIFPPSDEQLKSGTASVVCLLNNFYPREAKVQWKVDNALQSGNSQESVTEQDSKDSTYSLSSTLTLSKADYEKHKVYACEVTHQGLSSPVTKSFNRGEC",7.3
2,"Kn125-L4-GS7 (antibody, human IgG1, kappa, heterodimerized anti-EREG antibody: altered H240-Kn125 chain (Gly/Ser peptide in loop) with H240-Hl076 and L73-k0) heavy 1: QDQLVQSGAEVKKPGASVKVSCKASGFNIKDTYIQWVRQAPGQGLEWMGRIDPLRKQTKYREKFEGRVTITADTSTNTAYMELSSLRSEDTAVYYCVRSGREFDYWGQGTLVTVSSASTKGPSVFPLAPSSKSTSGGTAALGCLVKDYFPEPVTVSWNSGALTSGVHTFPAVLQSSGLYSLSSVVTVPSSSLGTQTYICNVNHKPSNTKVDKKVEPKSCDKTHTCPPCPAPELLGGPSVFLFPPKPKDTLMISRTPEVTCVVVDVSHEEPEVKFNWYVDGVEVHNAKTKPREEQYNSTYRVVSVLTVLHQDWLNGKEYKCKVSNDALPMPIEETISKAKGQPREPQVYTLPPSRCELTKNQVSLSCAVKGFYPSDIAVEWESNGQPENNYKTTPPVLDSDGSFFLVSKLTVDKSRWQQGNVFSCSVMHEALHNHYTQKSLSLSP heavy 2: QDQLVQSGAEVKKPGASVKVSCKASGFNIKDTYIQWVRQAPGQGLEWMGRIDPLRKQTKYREKFEGRVTITADTSTNTAYMELSSLRSEDTAVYYCVRSGREFDYWGQGTLVTVSSASTKGPSVFPLAPSSKSTSGGTAALGCLVKDYFPEPVTVSWNSGALTSGVHTFPAVLQSSGLYSLSSVVTVPSSSLGTQTYICNVNHKPSNTKVDKKVEPKSCDKTHTCPPCPAPEYQWGPMVFLFPPKPKDTLMISRTPEVTCVVVDVSDEEPEVKFNWYVDGVEVHNAKTKPREEQYNATYRVVSVLTVLHQDWLNGKEYKCKVSNGGSGGGSPIEKTISKAKGQPREPQVCTLPPSRDELTKNQVSLWCLVKGFYPSDIAVEWESNGQPENNYKTTPPVLDSDGSFFLYSKLTVDKSRWQQGNVFSCSVMHEALHNHYTQKSLSLSP light: DIQMTQSPSSLSASVGDRVTITCRASQDIHKYIAWYQQKPGQAPRLLIQYTSTLQPGVPSRFSGSGSGTDYTFTISSLQPEDIATYYCLQYEQLRTFGGGTKVEIKRTVAAPSVFIFPPSDEQLKSGTASVVCLLNNFYPREAKVQWKVDNALQSGNSQESVTEQDSKDSTYSLSSTLTLSKADYEKHKVYACEVTHQGLSSPVTKSFNRGEC",2
3,"Kn125-L2a-3 (antibody, human IgG1, kappa, heterodimerized anti-EREG antibody: altered H240-Kn125 chain (Gly/Ser peptide in loop) with H240-Hl076 and L73-k0) heavy 1: QDQLVQSGAEVKKPGASVKVSCKASGFNIKDTYIQWVRQAPGQGLEWMGRIDPLRKQTKYREKFEGRVTITADTSTNTAYMELSSLRSEDTAVYYCVRSGREFDYWGQGTLVTVSSASTKGPSVFPLAPSSKSTSGGTAALGCLVKDYFPEPVTVSWNSGALTSGVHTFPAVLQSSGLYSLSSVVTVPSSSLGTQTYICNVNHKPSNTKVDKKVEPKSCDKTHTCPPCPAPELLGGPSVFLFPPKPKDTLMISRTPEVTCVVVDVSHEEPEVKFNWYVDGVEVHNAKTKPREEQYNSTYRVVSVLTVLHQDWLNGKEYKCKVSNDALPMPIEETISKAKGQPREPQVYTLPPSRCELTKNQVSLSCAVKGFYPSDIAVEWESNGQPENNYKTTPPVLDSDGSFFLVSKLTVDKSRWQQGNVFSCSVMHEALHNHYTQKSLSLSP heavy 2: QDQLVQSGAEVKKPGASVKVSCKASGFNIKDTYIQWVRQAPGQGLEWMGRIDPLRKQTKYREKFEGRVTITADTSTNTAYMELSSLRSEDTAVYYCVRSGREFDYWGQGTLVTVSSASTKGPSVFPLAPSSKSTSGGTAALGCLVKDYFPEPVTVSWNSGALTSGVHTFPAVLQSSGLYSLSSVVTVPSSSLGTQTYICNVNHKPSNTKVDKKVEPKSCDKTHTCPPCPAPEYQWGPMVFLFPPKPKDTLMISRTPEVTCVVVDVSDEGGSEPEVKFNWYVDGVEVHNAKTKPREEQYNATYRVVSVLTVLHQDWLNGKEYKCKVSNKALPAPIEKTISKAKGQPREPQVCTLPPSRDELTKNQVSLWCLVKGFYPSDIAVEWESNGQPENNYKTTPPVLDSDGSFFLYSKLTVDKSRWQQGNVFSCSVMHEALHNHYTQKSLSLSP light: DIQMTQSPSSLSASVGDRVTITCRASQDIHKYIAWYQQKPGQAPRLLIQYTSTLQPGVPSRFSGSGSGTDYTFTISSLQPEDIATYYCLQYEQLRTFGGGTKVEIKRTVAAPSVFIFPPSDEQLKSGTASVVCLLNNFYPREAKVQWKVDNALQSGNSQESVTEQDSKDSTYSLSSTLTLSKADYEKHKVYACEVTHQGLSSPVTKSFNRGEC",10
4,"Kn125-L4-GS11 (antibody, human IgG1, kappa, heterodimerized anti-EREG antibody: altered H240-Kn125 chain (Gly/Ser peptide in loop) with H240-Hl076 and L73-k0) heavy 1: QDQLVQSGAEVKKPGASVKVSCKASGFNIKDTYIQWVRQAPGQGLEWMGRIDPLRKQTKYREKFEGRVTITADTSTNTAYMELSSLRSEDTAVYYCVRSGREFDYWGQGTLVTVSSASTKGPSVFPLAPSSKSTSGGTAALGCLVKDYFPEPVTVSWNSGALTSGVHTFPAVLQSSGLYSLSSVVTVPSSSLGTQTYICNVNHKPSNTKVDKKVEPKSCDKTHTCPPCPAPELLGGPSVFLFPPKPKDTLMISRTPEVTCVVVDVSHEEPEVKFNWYVDGVEVHNAKTKPREEQYNSTYRVVSVLTVLHQDWLNGKEYKCKVSNDALPMPIEETISKAKGQPREPQVYTLPPSRCELTKNQVSLSCAVKGFYPSDIAVEWESNGQPENNYKTTPPVLDSDGSFFLVSKLTVDKSRWQQGNVFSCSVMHEALHNHYTQKSLSLSP heavy 2: QDQLVQSGAEVKKPGASVKVSCKASGFNIKDTYIQWVRQAPGQGLEWMGRIDPLRKQTKYREKFEGRVTITADTSTNTAYMELSSLRSEDTAVYYCVRSGREFDYWGQGTLVTVSSASTKGPSVFPLAPSSKSTSGGTAALGCLVKDYFPEPVTVSWNSGALTSGVHTFPAVLQSSGLYSLSSVVTVPSSSLGTQTYICNVNHKPSNTKVDKKVEPKSCDKTHTCPPCPAPEYQWGPMVFLFPPKPKDTLMISRTPEVTCVVVDVSDEEPEVKFNWYVDGVEVHNAKTKPREEQYNATYRVVSVLTVLHQDWLNGKEYKCKVSNGGSGGGSGGGSPIEKTISKAKGQPREPQVCTLPPSRDELTKNQVSLWCLVKGFYPSDIAVEWESNGQPENNYKTTPPVLDSDGSFFLYSKLTVDKSRWQQGNVFSCSVMHEALHNHYTQKSLSLSP light: DIQMTQSPSSLSASVGDRVTITCRASQDIHKYIAWYQQKPGQAPRLLIQYTSTLQPGVPSRFSGSGSGTDYTFTISSLQPEDIATYYCLQYEQLRTFGGGTKVEIKRTVAAPSVFIFPPSDEQLKSGTASVVCLLNNFYPREAKVQWKVDNALQSGNSQESVTEQDSKDSTYSLSSTLTLSKADYEKHKVYACEVTHQGLSSPVTKSFNRGEC",1.5
5,"Kn125-L4-6 (antibody, human IgG1, kappa, heterodimerized anti-EREG antibody: altered H240-Kn125 chain (Gly/Ser peptide in loop) with H240-Hl076 and L73-k0) heavy 1: QDQLVQSGAEVKKPGASVKVSCKASGFNIKDTYIQWVRQAPGQGLEWMGRIDPLRKQTKYREKFEGRVTITADTSTNTAYMELSSLRSEDTAVYYCVRSGREFDYWGQGTLVTVSSASTKGPSVFPLAPSSKSTSGGTAALGCLVKDYFPEPVTVSWNSGALTSGVHTFPAVLQSSGLYSLSSVVTVPSSSLGTQTYICNVNHKPSNTKVDKKVEPKSCDKTHTCPPCPAPELLGGPSVFLFPPKPKDTLMISRTPEVTCVVVDVSHEEPEVKFNWYVDGVEVHNAKTKPREEQYNSTYRVVSVLTVLHQDWLNGKEYKCKVSNDALPMPIEETISKAKGQPREPQVYTLPPSRCELTKNQVSLSCAVKGFYPSDIAVEWESNGQPENNYKTTPPVLDSDGSFFLVSKLTVDKSRWQQGNVFSCSVMHEALHNHYTQKSLSLSP heavy 2: QDQLVQSGAEVKKPGASVKVSCKASGFNIKDTYIQWVRQAPGQGLEWMGRIDPLRKQTKYREKFEGRVTITADTSTNTAYMELSSLRSEDTAVYYCVRSGREFDYWGQGTLVTVSSASTKGPSVFPLAPSSKSTSGGTAALGCLVKDYFPEPVTVSWNSGALTSGVHTFPAVLQSSGLYSLSSVVTVPSSSLGTQTYICNVNHKPSNTKVDKKVEPKSCDKTHTCPPCPAPEYQWGPMVFLFPPKPKDTLMISRTPEVTCVVVDVSDEEPEVKFNWYVDGVEVHNAKTKPREEQYNATYRVVSVLTVLHQDWLNGKEYKCKVSNKGGSGGSALPAPIEKTISKAKGQPREPQVCTLPPSRDELTKNQVSLWCLVKGFYPSDIAVEWESNGQPENNYKTTPPVLDSDGSFFLYSKLTVDKSRWQQGNVFSCSVMHEALHNHYTQKSLSLSP light: DIQMTQSPSSLSASVGDRVTITCRASQDIHKYIAWYQQKPGQAPRLLIQYTSTLQPGVPSRFSGSGSGTDYTFTISSLQPEDIATYYCLQYEQLRTFGGGTKVEIKRTVAAPSVFIFPPSDEQLKSGTASVVCLLNNFYPREAKVQWKVDNALQSGNSQESVTEQDSKDSTYSLSSTLTLSKADYEKHKVYACEVTHQGLSSPVTKSFNRGEC",1.7
